These results are taken from patent publication US20070254313A1, “Gnal Splice Variant and Uses Thereof” (AstraZeneca AB, priority 2003, published 2007).

The target in assay [1] is human adenosine A2a receptor (ADORA2A) (human) (UniProt P29274). As to the kind of experiment: cell-based or functional assay.
Assay [2] concerns the target human dopamine D1A receptor (human) (UniProt P21728). As to the kind of experiment: cell-based or functional assay.

Sequence of human Golf protein (P38405 2-381 limits assumed): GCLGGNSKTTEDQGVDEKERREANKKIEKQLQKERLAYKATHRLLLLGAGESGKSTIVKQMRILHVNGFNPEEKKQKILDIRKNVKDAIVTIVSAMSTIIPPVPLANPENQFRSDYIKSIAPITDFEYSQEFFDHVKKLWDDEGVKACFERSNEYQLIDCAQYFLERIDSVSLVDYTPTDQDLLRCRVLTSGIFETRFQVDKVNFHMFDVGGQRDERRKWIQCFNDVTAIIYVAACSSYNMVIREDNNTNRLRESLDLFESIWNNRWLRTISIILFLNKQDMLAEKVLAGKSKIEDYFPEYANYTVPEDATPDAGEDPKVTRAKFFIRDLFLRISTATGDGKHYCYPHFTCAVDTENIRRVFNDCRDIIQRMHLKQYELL
Sequence of human dopamine D1A receptor (human) (P21728 whole entry): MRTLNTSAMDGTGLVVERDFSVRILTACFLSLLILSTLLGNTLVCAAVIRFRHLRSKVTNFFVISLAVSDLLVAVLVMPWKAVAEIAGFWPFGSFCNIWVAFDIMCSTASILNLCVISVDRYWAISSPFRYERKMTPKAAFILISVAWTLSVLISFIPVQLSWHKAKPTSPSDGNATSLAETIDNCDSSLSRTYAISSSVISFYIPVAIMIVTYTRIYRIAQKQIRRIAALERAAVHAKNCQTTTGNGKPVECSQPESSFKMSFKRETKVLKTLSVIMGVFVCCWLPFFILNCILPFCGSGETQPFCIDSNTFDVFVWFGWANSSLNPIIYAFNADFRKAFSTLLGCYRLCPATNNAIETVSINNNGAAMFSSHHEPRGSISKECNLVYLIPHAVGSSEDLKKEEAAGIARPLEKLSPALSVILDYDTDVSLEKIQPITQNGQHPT
Sequence of human adenosine A2a receptor (ADORA2A) (human) (P29274 whole entry): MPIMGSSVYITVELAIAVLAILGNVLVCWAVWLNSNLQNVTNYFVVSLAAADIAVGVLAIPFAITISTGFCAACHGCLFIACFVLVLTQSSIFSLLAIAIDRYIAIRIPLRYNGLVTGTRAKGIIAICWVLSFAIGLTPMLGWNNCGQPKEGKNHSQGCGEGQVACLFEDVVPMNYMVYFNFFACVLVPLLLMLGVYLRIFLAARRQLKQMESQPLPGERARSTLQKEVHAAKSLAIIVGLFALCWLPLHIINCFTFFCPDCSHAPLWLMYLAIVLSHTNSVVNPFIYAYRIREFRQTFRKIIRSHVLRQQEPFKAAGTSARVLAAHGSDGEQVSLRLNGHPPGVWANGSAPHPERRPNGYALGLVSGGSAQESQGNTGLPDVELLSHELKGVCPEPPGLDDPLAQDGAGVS

On to “human Golf protein (from UniProt P38405 2-381)”, for which the induction of GTPγS agonist signal, A2a receptor co-expressed with Golf in Sf9 cells in assay [1] is 0.2. In assay [2], this substance yielded an efficacy (Emax) of dopamine-induced [35S]-GTPγS binding, membranes of Sf9 cells co-expressing DRD1 and Golf of 231%.
